Assay results from US20090136484A1.

Experiments:
[1] = target: T1, Biotin-… (epitope sequence from candidal Hsp90) (Candida); assay: ELISA, biotinylated peptide on streptavidin plate, anti-His-HRP detection; Site 1; sample in 50 mM Tris, pH 9.0
[2] = target: T1, Biotin-… (epitope sequence from …); assay: ELISA, biotinylated peptide on streptavidin plate, anti-His-HRP detection; Site 2; sample in 50 mM Tris, 3 mM DTT, pH 9.0
[3] = target: T1, Biotin-… (epitope sequence from …); assay: ELISA, biotinylated peptide on streptavidin plate, anti-His-HRP detection; Site 1; sample in 50 mM Tris, 1 M sucrose, ~0.2% Tween20, 3 mM DTT, pH 3.0
[4] = target: T1, Biotin-… (epitope sequence from …); assay: ELISA, biotinylated peptide on streptavidin plate, anti-His-HRP detection; Site 2; sample in 50 mM Tris, pH 9.0
[5] = target: T1, Biotin-… (epitope sequence from …); assay: ELISA, biotinylated peptide on streptavidin plate, anti-His-HRP detection; Site 2; sample in 50 mM Tris, 1 M sucrose, ~0.2% Tween20, 3 mM DTT, pH 3.0
[6] = target: T1, Biotin-… (epitope sequence from …); assay: ELISA, biotinylated peptide on streptavidin plate, anti-His-HRP detection; Site 1; sample in 0.5 M urea, 0.2 M L-arginine pH 9.5
[7] = target: T1, Biotin-… (epitope sequence from …); assay: ELISA, biotinylated peptide on streptavidin plate, anti-His-HRP detection; Site 1; sample in 50 mM Tris, 3 mM DTT, pH 9.0
[8] = target: T1, Biotin-… (epitope sequence from …); assay: ELISA, biotinylated peptide on streptavidin plate, anti-His-HRP detection; Site 2; sample in 0.5 M urea, 0.2 M L-arginine pH 9.5

B1: MYC123 ("wild type" Mycograb) scFv peptide (scFv)
scFv: MAEVQLVESGAEVKKPGESLRISCKGSGCIISSYWISWVRQMPGKGLEWMGKIDPGDSYINYSPSFQGHVTISADKSINTAYLQWNSLKASDTAMYYCARGGRDFGDSFDYWGQGTLVTVSSGGGGSGGGGSGGGGSDVVMTQSPSFLSAFVGDRITITCRASSGISRYLAWYQQAPGKAPKLLIYAASTLQTGVPSRFSGSGSGTEFTLTINSLQPEDFATYYCQHLNSYPLTFGGGTKVDIKRAAALEHHHHHH
**Q.** How did the ELISA activity [%] compared with the reference standard [1] turn out when B1 was run?
**A.** 71%

**Q.** And the ELISA activity [%] compared with the reference standard [2]?
**A.** 131%

**Q.** And the ELISA activity [%] compared with the reference standard [3]?
**A.** 135%

**Q.** And the ELISA activity [%] compared with the reference standard [4]?
**A.** 95%

**Q.** What about the ELISA activity [%] compared with the reference standard [5] of the same binder?
**A.** 130%

**Q.** What about the ELISA activity [%] compared with the reference standard [6] of the same binder?
**A.** 90%

**Q.** What about the ELISA activity [%] compared with the reference standard [7] of the same binder?
**A.** 85%

**Q.** And the ELISA activity [%] compared with the reference standard [8]?
**A.** 78%
